From paper PMC5832979, “Ligand complex structures of L‐amino acid oxidase/monooxygenase from Pseudomonas sp. AIU 813 and its conformational change” (FEBS Open Bio, 2018)

Legend:
[1] = biological target: T1, L-AAO/MOG (Pseudomonas sp. AIU 813, UniProt W6JQJ6); test: X-ray crystal structure, […] Å; assay type: binding; settings: bound cofactor; redox state mixed or uncertain; L-Lys complex
T1 construct: gene laao; N-terminally His-tagged, pET15b-laao/mog, expressed in E. coli; homodimer with FAD
T1 sequence (W6JQJ6 1-560): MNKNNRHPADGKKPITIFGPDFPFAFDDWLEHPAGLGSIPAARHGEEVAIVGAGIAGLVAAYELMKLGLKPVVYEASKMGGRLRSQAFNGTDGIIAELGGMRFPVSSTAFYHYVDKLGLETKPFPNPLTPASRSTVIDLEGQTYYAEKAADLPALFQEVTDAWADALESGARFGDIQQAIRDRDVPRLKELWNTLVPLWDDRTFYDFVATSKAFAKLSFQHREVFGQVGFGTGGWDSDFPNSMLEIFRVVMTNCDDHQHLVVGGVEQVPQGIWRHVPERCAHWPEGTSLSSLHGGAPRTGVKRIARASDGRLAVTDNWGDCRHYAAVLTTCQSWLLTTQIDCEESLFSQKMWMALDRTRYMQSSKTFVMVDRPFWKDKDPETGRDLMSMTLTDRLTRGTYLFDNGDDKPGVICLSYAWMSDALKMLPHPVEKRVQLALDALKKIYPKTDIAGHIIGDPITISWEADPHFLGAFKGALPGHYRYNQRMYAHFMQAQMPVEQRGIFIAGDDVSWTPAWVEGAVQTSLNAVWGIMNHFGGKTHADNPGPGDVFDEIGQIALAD

[2] = biological target: T1, L-AAO/MOG; test: X-ray crystal structure, soaking, […] Å; assay type: binding; settings: active site, also second site; 20 mM soak; density relatively ambiguous; modelled as unreacted substrate
[3] = biological target: T1, L-AAO/MOG; test: X-ray crystal structure, soaking, […] Å; assay type: binding; settings: active site, also second site at dimer interface; 10 mM soak; modelled as unreacted substrate, redox state uncertain
[4] = biological target: T1, L-AAO/MOG; test: X-ray crystal structure, soaking, […] Å; assay type: binding; settings: active site, also second site; 20 mM soak; density relatively ambiguous; modelled as unreacted substrate; remark: listed apart in the source
[5] = test system: T2, N=C(N)NCCC[C@H](N)C(=O)O; test: purified protein; assay type: biochemical, Pseudomonas sp. AIU 813; settings: oxidase reaction, borate-NaOH pH 9.0, 30 °C, pH 9.0
T2 construct: N-terminally His-tagged, pET15b-laao/mog, expressed in E. coli; homodimer with FAD

[6] = test system: T3, NCCCC[C@H](N)C(=O)O; test: purified protein; assay type: biochemical, Pseudomonas sp. AIU 813; settings: 100 mM potassium phosphate pH 7.0, 30 °C
T3 construct: N-terminally His-tagged, pET15b-laao/mog, expressed in E. coli; homodimer with FAD

[7] = substrate: NCCC[C@H](N)C(=O)O; test: purified protein; settings: borate-NaOH pH 9.0, 30 °C
[8] = biological target: the molecule itself; test: crystal structure; sitting-drop vapor diffusion at 20 °C, 20% PEG3350 and 0.15 M DL-malic acid pH 7.0; crystals soaked with 10 mM L-Lys, 20 mM L-Orn or 20 mM L-Arg; tetramer (two biological dimers) in the asymmetric unit
[9] = substrate: N=C(N)NCCC[C@H](N)C(=O)O; test: purified protein; assay type: biochemical, Pseudomonas sp. AIU 813; settings: borate-NaOH pH 9.0, 30 °C, pH 9.0
[10] = substrate: NCCCC[C@H](N)C(=O)O; test: purified protein; assay type: biochemical, Pseudomonas sp. AIU 813; settings: 100 mM potassium phosphate pH 7.0, 30 °C, pH 7.0

With Cc1cc2nc3c(=O)[nH]c(=O)nc-3n(C[C@H](O)[C@H](O)[C@H](O)COP(=O)(O)OP(=O)(O)OC[C@H]3O[C@@H](n4cnc5c(N)ncnc54)[C@H](O)[C@@H]3O)c2cc1C [FAD] the “X-ray crystal structure, 2.10 Å” value [1] was “FAD and L‐Lys molecules are shown as yellow and magenta sticks”.

With N=C(N)NCCC[C@H](N)C(=O)O [L-Arg] the “X-ray crystal structure, soaking, 2.30 Å” value [2] was “The structures of L‐AAO/MOG complexed with either L‐Lys, L‐Orn, or L‐Arg were determined”.

For NCCCC[C@H](N)C(=O)O [L-Lys], the “X-ray crystal structure, soaking, 2.10 Å” value [3] was “electron density map for a L‐Lys molecule was clearly observed in the substrate binding pocket”.

With NCCC[C@H](N)C(=O)O [L-Orn] the “X-ray crystal structure, soaking, 2.00 Å” value [4] was “The structures of L‐AAO/MOG complexed with either L‐Lys, L‐Orn, or L‐Arg were determined”.

In the case of “L-AAO/MOG (Pseudomonas sp. AIU 813; D238A)”, the Km [5] is reported as 410 ± 10 µM, the kcat [5] is reported as 0.1 ± 0.02 s⁻¹ and the kcat/Km [5] is reported as 240 ± 60 M⁻¹ s⁻¹. The Km ([6]; monooxygenase reaction) was 260 ± 20 µM, the kcat ([6]; monooxygenase reaction) was 2.7 ± 0.4 s⁻¹ and the kcat/Km ([6]; monooxygenase reaction) was 10000 ± 1000 M⁻¹ s⁻¹. For the same molecule, the Km ([6]; oxidase reaction, pH 7.0) was 610 ± 50 µM and the kcat ([6]; oxidase reaction, pH 7.0) was 0.5 ± 0.03 s⁻¹.

“L-AAO/MOG (Pseudomonas sp. AIU 813; D238E)” showed a Km ([6]; monooxygenase reaction) of 43 ± 1 µM, a kcat ([6]; monooxygenase reaction) of 8.1 ± 0.6 s⁻¹ and a kcat/Km ([6]; monooxygenase reaction) of 190000 ± 10000 M⁻¹ s⁻¹. For the same molecule, the Km ([6]; oxidase reaction) was 18 ± 6 µM, the kcat ([6]; oxidase reaction) was 2.3 ± 0.3 s⁻¹ and the kcat/Km ([6]; oxidase reaction) was 130000 ± 10000 M⁻¹ s⁻¹.

In the case of “L-AAO/MOG (Pseudomonas sp. AIU 813; D238F)”, the Km [5] is reported as 80 ± 18 µM, the kcat [5] is reported as 0.1 ± 0.01 s⁻¹ and the kcat/Km [5] is reported as 1300 ± 100 M⁻¹ s⁻¹. The Km ([6]; monooxygenase reaction) was 72 ± 3 µM, the kcat ([6]; monooxygenase reaction) was 0.8 ± 0.04 s⁻¹ and the kcat/Km ([6]; monooxygenase reaction) was 11000 ± 1000 M⁻¹ s⁻¹. The Km ([6]; oxidase reaction, pH 7.0) was 49 ± 9 µM, the kcat ([6]; oxidase reaction, pH 7.0) was 0.17 ± 0.01 s⁻¹ and the kcat/Km ([6]; oxidase reaction, pH 7.0) was 3500 ± 200 M⁻¹ s⁻¹.

B1: L‐Amino acid oxidase/monooxygenase from Pseudomonas sp. AIU 813 (enzyme)
chain: MNKNNRHPADGKKPITIFGPDFPFAFDDWLEHPAGLGSIPAARHGEEVAIVGAGIAGLVAAYELMKLGLKPVVYEASKMGGRLRSQAFNGTDGIIAELGGMRFPVSSTAFYHYVDKLGLETKPFPNPLTPASRSTVIDLEGQTYYAEKAADLPALFQEVTDAWADALESGARFGDIQQAIRDRDVPRLKELWNTLVPLWDDRTFYDFVATSKAFAKLSFQHREVFGQVGFGTGGWDSDFPNSMLEIFRVVMTNCDDHQHLVVGGVEQVPQGIWRHVPERCAHWPEGTSLSSLHGGAPRTGVKRIARASDGRLAVTDNWGDCRHYAAVLTTCQSWLLTTQIDCEESLFSQKMWMALDRTRYMQSSKTFVMVDRPFWKDKDPETGRDLMSMTLTDRLTRGTYLFDNGDDKPGVICLSYAWMSDALKMLPHPVEKRVQLALDALKKIYPKTDIAGHIIGDPITISWEADPHFLGAFKGALPGHYRYNQRMYAHFMQAQMPVEQRGIFIAGDDVSWTPAWVEGAVQTSLNAVWGIMNHFGGKTHADNPGPGDVFDEIGQIALAD
notes: L-amino acid oxidase/monooxygenase (L-AAO/MOG), Pseudomonas sp; AIU 813; FAD-dependent; expression plasmid pET15b-laao/mog; Carries FAD; The biological dimer is chains A-C and B-D of the crystal; also called L‐AAO/MOG; wild‐type enzyme
Molecule B1 has a Km ([7]; monooxygenase reaction) of 33 ± 1 µM, a kcat ([7]; monooxygenase reaction) of 6.7 s⁻¹ and a kcat/Km ([7]; monooxygenase reaction) of 200000 M⁻¹ s⁻¹. The Km ([7]; oxidase reaction) was 22 ± 4 µM, the kcat ([7]; oxidase reaction) was 1.5 s⁻¹ and the kcat/Km ([7]; oxidase reaction) was 68000 M⁻¹ s⁻¹. The binding result [8] was “binds”, the Km ([9]; monooxygenase reaction) was 67 ± 5 µM and the kcat ([9]; monooxygenase reaction) was 1.6 ± 0.2 s⁻¹. It also gave a kcat/Km ([9]; monooxygenase reaction) of 24000 ± 1000 M⁻¹ s⁻¹, a Km ([9]; oxidase reaction) of 48 ± 1 µM and a kcat ([9]; oxidase reaction) of 0.41 ± 0.02 s⁻¹. It also gave a kcat/Km ([9]; oxidase reaction) of 8500 ± 650 M⁻¹ s⁻¹, a Km ([10]; monooxygenase reaction) of 61 ± 6 µM and a kcat ([10]; monooxygenase reaction) of 4.5 ± 0.1 s⁻¹. For the same molecule, the kcat/Km ([10]; monooxygenase reaction) was 74000 ± 5000 M⁻¹ s⁻¹, the Km ([10]; oxidase reaction) was 27 ± 3 µM and the kcat ([10]; oxidase reaction) was 0.8 ± 0.09 s⁻¹. It also gave a kcat/Km ([10]; oxidase reaction) of 30000 ± 1000 M⁻¹ s⁻¹.
